# In publication PMC5923241, “The ng_ζ1 toxin of the gonococcal epsilon/zeta toxin/antitoxin system drains precursors for cell wall synthesis” (Nature Communications, 2018):
# T1: ngζ_1 toxin (zeta_1) of Neisseria gonorrhoeae, wild type (Neisseria gonorrhoeae, UniProt D5K9G7)
# T1 sequence: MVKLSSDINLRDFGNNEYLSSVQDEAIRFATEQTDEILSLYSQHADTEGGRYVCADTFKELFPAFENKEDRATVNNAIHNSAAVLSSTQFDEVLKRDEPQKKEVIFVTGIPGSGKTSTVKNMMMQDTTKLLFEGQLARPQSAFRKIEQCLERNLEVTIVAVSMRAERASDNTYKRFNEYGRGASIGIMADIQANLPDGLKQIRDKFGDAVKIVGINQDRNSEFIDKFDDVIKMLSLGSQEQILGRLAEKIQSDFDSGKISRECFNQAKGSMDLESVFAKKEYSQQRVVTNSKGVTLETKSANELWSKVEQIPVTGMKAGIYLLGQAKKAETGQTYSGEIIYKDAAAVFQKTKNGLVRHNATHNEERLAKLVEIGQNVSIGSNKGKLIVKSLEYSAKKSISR
# B1: ngε_1 antitoxin (epsilon_1) of Neisseria gonorrhoeae (natural protein)
# chain: MNKVEPQESNAIRMIKEACEKNRRMMTDEAFRKEVEKRLYAGPSPELLAKLRVLWAANKEQ
# notes: also called ng_ɛ1; source: E. coli BL21(DE3)-RIL, purified as ngε_1/ngζ_1 complex (Ni-NTA, standard chromatographic procedures)
# Biological target: T1, ngζ_1 toxin (zeta_1) of Neisseria …
# Assay: crystal structure
# Settings: both partners purified
binder,measurement,value
B1,binding result,binds
